According to US20200024322A1 (Eli Lilly, published 2020):
Numbered stars: 1 amine (or outer) side, 2 acyl side, 3 side chain; on linkers, the order of the positions; unused ones are H or OH. Square brackets hold non-standard residues; d marks the D form. Side chains are listed from the residue outwards. Ends that are not written are not given here. * marks the point of attachment. C18 diacid = O=C(O)CCCCCCCCCCCCCCCCC(=O)*; γGlu = O=C(O)[C@H](CCC(=O)[*:2])N[*:1]; AEEA = NCCOCCOCC(=O)O; Aib = CC(C)(N)C(=O)O

Key:
[1] = target: T1, human GIP receptor (human, UniProt P48546 22-466); test: [125I]-GIP competition SPA, hGIPR membranes
T1 construct: whole, on cells; also called hGIPR; hGIP-R
T1 sequence (looked up): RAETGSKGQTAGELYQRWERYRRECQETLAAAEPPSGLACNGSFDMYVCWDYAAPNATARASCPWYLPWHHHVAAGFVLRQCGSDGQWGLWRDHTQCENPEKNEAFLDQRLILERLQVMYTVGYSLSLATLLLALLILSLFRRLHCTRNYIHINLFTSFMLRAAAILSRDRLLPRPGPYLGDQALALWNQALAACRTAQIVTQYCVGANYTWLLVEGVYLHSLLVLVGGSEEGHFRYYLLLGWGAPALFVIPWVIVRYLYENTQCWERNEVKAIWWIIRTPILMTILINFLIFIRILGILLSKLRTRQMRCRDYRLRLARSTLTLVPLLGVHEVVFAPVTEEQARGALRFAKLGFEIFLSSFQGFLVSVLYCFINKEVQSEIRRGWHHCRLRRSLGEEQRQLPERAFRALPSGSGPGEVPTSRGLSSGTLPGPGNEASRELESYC

[2] = target: T2, human GLP-1 receptor (human, UniProt P43220 24-463); test: [125I]-GLP-1 competition SPA, hGLP-1R membranes
T2 construct: whole, on cells; also called hGLP-1R; hGLP1R
Outline: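 Competition binding in 25 mM HEPES pH 7.4, 2.5 mM CaCl₂, 1 mM MgCl₂, 0.1% bacitracin, 0.003% TWEEN-20, EDTA-free protease inhibitors. IC₅₀ from four-parameter nonlinear fit; Kᵢ given as geometric mean ± SEM, n = independent replicates on different days.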

[3] = target: T3, human glucagon receptor (human, UniProt P47871 26-477); test: [125I]-Gcg competition SPA, hGcgR membranes
T3 construct: whole, on cells; also called hGcgR; GcgR

[4] = target: T4, human gastric inhibitory peptide receptor (GIPR) (human, UniProt P48546 22-466); test: cell-based or functional assay
T4 sequence (looked up): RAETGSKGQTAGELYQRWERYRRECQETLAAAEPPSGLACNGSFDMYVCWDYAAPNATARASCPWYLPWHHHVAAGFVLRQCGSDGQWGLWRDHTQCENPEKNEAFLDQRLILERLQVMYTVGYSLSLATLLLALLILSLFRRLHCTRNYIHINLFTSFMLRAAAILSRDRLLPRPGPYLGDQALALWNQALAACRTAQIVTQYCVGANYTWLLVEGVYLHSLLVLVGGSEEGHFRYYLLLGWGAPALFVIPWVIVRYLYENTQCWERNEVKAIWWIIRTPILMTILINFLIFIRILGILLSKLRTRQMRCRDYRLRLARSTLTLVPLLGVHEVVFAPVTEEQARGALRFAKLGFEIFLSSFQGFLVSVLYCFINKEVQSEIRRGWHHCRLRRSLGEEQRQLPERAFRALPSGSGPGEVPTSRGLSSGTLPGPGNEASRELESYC

[5] = target: human GLP-1 receptor (GLP-1R) (human, UniProt P43220 24-463); test: cell-based or functional assay

T3 sequence (P47871 26-477): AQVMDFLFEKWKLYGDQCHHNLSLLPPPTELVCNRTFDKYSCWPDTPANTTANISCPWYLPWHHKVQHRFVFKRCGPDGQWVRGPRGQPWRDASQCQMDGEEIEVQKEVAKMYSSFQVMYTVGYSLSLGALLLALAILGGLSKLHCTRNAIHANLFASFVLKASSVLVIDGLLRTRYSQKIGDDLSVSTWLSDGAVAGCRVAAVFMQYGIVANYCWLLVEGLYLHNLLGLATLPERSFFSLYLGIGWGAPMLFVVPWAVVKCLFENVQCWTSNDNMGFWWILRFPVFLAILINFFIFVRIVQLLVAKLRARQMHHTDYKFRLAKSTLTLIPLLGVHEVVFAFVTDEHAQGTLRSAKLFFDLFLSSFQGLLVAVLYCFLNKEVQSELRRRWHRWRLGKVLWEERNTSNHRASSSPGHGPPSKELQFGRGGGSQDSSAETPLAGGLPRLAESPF

B1: Example 316 (peptide)
peptide: Y[Aib]EGTFTSDYSILLDKK([AEEA-AEEA-γGlu-C18 diacid])AQ[Aib]AFIEYLIAGGPSSGAPPPS-NH2
modifications: N-terminus assumed
SMILES: CC[C@H](C)[C@H](NC(=O)[C@H](CC(C)C)NC(=O)[C@H](Cc1ccc(O)cc1)NC(=O)[C@H](CCC(=O)O)NC(=O)[C@@H](NC(=O)[C@H](Cc1ccccc1)NC(=O)[C@H](C)NC(=O)C(C)(C)NC(=O)[C@H](CCC(N)=O)NC(=O)[C@H](C)NC(=O)[C@H](CCCCNC(=O)COCCOCCNC(=O)COCCOCCNC(=O)CC[C@H](NC(=O)CCCCCCCCCCCCCCCCC(=O)O)C(=O)O)NC(=O)[C@H](CCCCN)NC(=O)[C@H](CC(=O)O)NC(=O)[C@H](CC(C)C)NC(=O)[C@H](CC(C)C)NC(=O)[C@@H](NC(=O)[C@H](CO)NC(=O)[C@H](Cc1ccc(O)cc1)NC(=O)[C@H](CC(=O)O)NC(=O)[C@H](CO)NC(=O)[C@@H](NC(=O)[C@H](Cc1ccccc1)NC(=O)[C@@H](NC(=O)CNC(=O)[C@H](CCC(=O)O)NC(=O)C(C)(C)NC(=O)[C@@H](N)Cc1ccc(O)cc1)[C@@H](C)O)[C@@H](C)O)[C@@H](C)CC)[C@@H](C)CC)C(=O)N[C@@H](C)C(=O)NCC(=O)NCC(=O)N1CCC[C@H]1C(=O)N[C@@H](CO)C(=O)N[C@@H](CO)C(=O)NCC(=O)N[C@@H](C)C(=O)N1CCC[C@H]1C(=O)N1CCC[C@H]1C(=O)N1CCC[C@H]1C(=O)N[C@@H](CO)C(N)=O
Ki [1]: 41.8 pM
Ki [2]: 957 pM
Ki [3]: 654000 pM

B2: Example 325 (peptide)
peptide: YXEGTXTSDYSILLDKKAQXAFIEYLIEGGPSSGAPPPS
modifications: Aib2; αMeF(2F)6; K17((2-[2-(2-Amino-ethoxy)-ethoxy]-acetyl)2-(γ-Glu)-CO-(CH2)18-CO2H); Aib20; C-terminal NH2
Ki [1]: 20.9 pM
Ki [2]: 475 pM
Ki [3]: 13000 pM

B3: Y-Aib-EGTFTSDYSI-αMeL-LDKK((2[2-(2-Amino-ethoxy)-ethoxy]-acetyl)2-(γ-Glu)-CO-(CH2)18-CO2H)AQ-Aib-EFIE-αMeY-LIAGGPSSGAPPPS-NH2 (peptide)
peptide: YXEGTFTSDYSIXLDKKAQXEFIEXLIAGGPSSGAPPPS
modifications: Aib2; αMeL13; K17 conjugated to (2-[2-(2-Amino-ethoxy)-ethoxy]-acetyl)2-(γ-Glu)-CO-(CH2)18-CO2H; Aib20; αMeY25; C-terminal amide (NH2)
hGIPR cAMP EC50 ratio [4]: 5.85
hGLP1R cAMP EC50 ratio [5]: 0.386

B4: Example 367 (peptide)
peptide: YXEGTFTSDYSIXLDKKAQXEFIEXLIAGGPSSGAPPPS
modifications: Aib2; αMeL13; K17((2-[2-(2-Amino-ethoxy)-ethoxy]-acetyl)2-(γ-Glu)-CO-(CH2)18-CO2H); Aib20; αMeY25; C-terminal NH2
Ki [1]: 28.2 pM
Ki [2]: 809 pM
Ki [3]: 777000 pM

B5: (D-Tyr)-Aib-EGTFTSDYSI-αMeL-LDKK((2-[2-(2-Amino-ethoxy)-ethoxy]-acetyl)-(γ-Glu)-CO-(CH2)18-CO2H)AQ-Aib-EFIE-αMeY-LIAGGPSSGAPPPS-NH2 (peptide)
peptide: XXEGTFTSDYSIXLDKKAQXEFIEXLIAGGPSSGAPPPS
modifications: D-Tyr1; Aib2; αMeL13; K17 conjugated to (2-[2-(2-Amino-ethoxy)-ethoxy]-acetyl)-(γ-Glu)-CO-(CH2)18-CO2H; Aib20; αMeY25; C-terminal amide (NH2)
hGIPR cAMP EC50 ratio [4]: 0.68
hGLP1R cAMP EC50 ratio [5]: 0.0741

B6: (D-Tyr)-Aib-EGTFTSDYSI-αMeL-LDKK((2-[2-(2-Amino-ethoxy)-ethoxy]-acetyl)2-(γ-Glu)-CO-(CH2)16-CO2H)AQ-Aib-EFIE-αMeY-LIAGGPSSGAPPPS-NH2 (peptide)
peptide: XXEGTFTSDYSIXLDKKAQXEFIEXLIAGGPSSGAPPPS
modifications: D-Tyr1; Aib2; αMeL13; K17 conjugated to (2-[2-(2-Amino-ethoxy)-ethoxy]-acetyl)2-(γ-Glu)-CO-(CH2)16-CO2H; Aib20; αMeY25; C-terminal amide (NH2)
hGIPR cAMP EC50 ratio [4]: 1.76
hGLP1R cAMP EC50 ratio [5]: 0.169

B7: (D-Tyr)-Aib-EGTFTSDYSI-αMeL-LD-Orn-K((2-[2-(2-Amino-ethoxy)-ethoxy]-acetyl)2-(γ-Glu)-CO-(CH2)18-CO2H)AQ-Aib-AFVEYLIEGGPSSGAPPPS-NH2 (peptide)
peptide: XXEGTFTSDYSIXLDXKAQXAFVEYLIEGGPSSGAPPPS
modifications: D-Tyr1; Aib2; αMeL13; Orn16; K17 conjugated to (2-[2-(2-Amino-ethoxy)-ethoxy]-acetyl)2-(γ-Glu)-CO-(CH2)18-CO2H; Aib20; C-terminal amide (NH2)
hGIPR cAMP EC50 ratio [4]: 0.53
hGLP1R cAMP EC50 ratio [5]: 0.171

B8: (D-Tyr)-Aib-EGTFTSDYSI-αMeL-LD-Orn-K((2-[2-(2-Amino-ethoxy)-ethoxy]-acetyl)2-(γ-Glu)-CO-(CH2)18-CO2H)AQ-Aib-EFIE-αMeY-LIEGGPSSGAPPPS-NH2 (peptide)
peptide: XXEGTFTSDYSIXLDXKAQXEFIEXLIEGGPSSGAPPPS
modifications: D-Tyr1; Aib2; αMeL13; Orn16; K17 conjugated to (2-[2-(2-Amino-ethoxy)-ethoxy]-acetyl)2-(γ-Glu)-CO-(CH2)18-CO2H; Aib20; αMeY25; C-terminal amide (NH2)
hGIPR cAMP EC50 ratio [4]: 0.374
hGLP1R cAMP EC50 ratio [5]: 0.115

B9: Example 329 (peptide)
peptide: XXEGTXTSDYSILLDKKAQXAFIEYLIEGGPSSGAPPPS
modifications: D-Tyr1; Aib2; αMeF6; K17((2-[2-(2-Amino-ethoxy)-ethoxy]-acetyl)2-(γ-Glu)-CO-(CH2)18-CO2H); Aib20; C-terminal NH2
Ki [1]: 43.9 pM
Ki [2]: 3280 pM
Ki [3]: 17000 pM

B10: (D-Tyr)-Aib-EGTFTSDYSI-αMeL-LD-Orn-K((2-[2-(2-Amino-ethoxy)-ethoxy]-acetyl)-(γ-Glu)-CO-(CH2)18-CO2H)AQ-Aib-EFIEYLIAGGPSSGAPPPS-NH2 (peptide)
peptide: XXEGTFTSDYSIXLDXKAQXEFIEYLIAGGPSSGAPPPS
modifications: D-Tyr1; Aib2; αMeL13; Orn16; K17 conjugated to (2-[2-(2-Amino-ethoxy)-ethoxy]-acetyl)-(γ-Glu)-CO-(CH2)18-CO2H; Aib20; C-terminal amide (NH2)
hGIPR cAMP EC50 ratio [4]: 0.393
hGLP1R cAMP EC50 ratio [5]: 0.206

B11: (D-Tyr)-Aib-EGTFTSDYSI-αMeL-LD-Orn-K((2-[2-(2-Amino-ethoxy)-ethoxy]-acetyl)2-(D-(γ-Glu)-CO-(CH2)16-CO2H)AQ-Aib-AFI-Glu)-YLIAGGPSSGAPPPS-NH2 (peptide)
peptide: XXEGTFTSDYSIXLDXKAQXAFIXYLIAGGPSSGAPPPS
modifications: D-Tyr1; Aib2; αMeL13; Orn16; K17 conjugated to (2-[2-(2-Amino-ethoxy)-ethoxy]-acetyl)2-(γ-Glu)-CO-(CH2)16-CO2H; Aib20; C-terminal amide (NH2)
hGIPR cAMP EC50 ratio [4]: 0.835
hGLP1R cAMP EC50 ratio [5]: 0.146

B12: (D-Tyr)-Aib-EGTFTSDYSI-αMeL-LD-Orn-K((2-[2-(2-Amino-ethoxy)-ethoxy]-acetyl)2-(γ-Glu)-CO-(CH2)16-CO2H)AQ-Aib-AFV-(D-Glu)-YLIAGGPSSGAPPPS-NH2 (peptide)
peptide: XXEGTFTSDYSIXLDXKAQXAFVXYLIAGGPSSGAPPPS
modifications: D-Tyr1; Aib2; αMeL13; Orn16; K17 conjugated to (2-[2-(2-Amino-ethoxy)-ethoxy]-acetyl)2-(γ-Glu)-CO-(CH2)16-CO2H; Aib20; D-Glu24; C-terminal amide (NH2)
hGIPR cAMP EC50 ratio [4]: 0.347
hGLP1R cAMP EC50 ratio [5]: 0.0303

B13: (D-Tyr)-Aib-EGTFTSDYSI-αMeL-LDKK((2-[2-(2-Amino-ethoxy)-ethoxy]-acetyl)-(γ-Glu)-CO-(CH2)18-CO2H)AQ-Aib-EFIEYLIAGGPSSGAPPPS-NH2 (peptide)
peptide: XXEGTFTSDYSIXLDKKAQXEFIEYLIAGGPSSGAPPPS
modifications: D-Tyr1; Aib2; αMeL13; K17 conjugated to (2-[2-(2-Amino-ethoxy)-ethoxy]-acetyl)-(γ-Glu)-CO-(CH2)18-CO2H; Aib20; C-terminal amide (NH2)
hGIPR cAMP EC50 ratio [4]: 0.793
hGLP1R cAMP EC50 ratio [5]: 0.142

B14: (D-Tyr)-Aib-EGTFTSDYSI-αMeL-LDKK((2-[2-(2-Amino-ethoxy)-ethoxy]-acetyl)2-(γ-Glu)-CO-(CH2)18-CO2H)AQ-Aib-AFIE-αMeY-LIAGGPSSGAPPPS-NH2 (peptide)
peptide: XXEGTFTSDYSIXLDKKAQXAFIEXLIAGGPSSGAPPPS
modifications: D-Tyr1; Aib2; αMeL13; K17 conjugated to (2-[2-(2-Amino-ethoxy)-ethoxy]-acetyl)2-(γ-Glu)-CO-(CH2)18-CO2H; Aib20; αMeY25; C-terminal amide (NH2)
hGIPR cAMP EC50 ratio [4]: 0.784
hGLP1R cAMP EC50 ratio [5]: 0.155

B15: Example 336 (peptide)
peptide: XXEGTXTSDYSIXLDKKAQXAFIEYLIEGGPSSGAPPPS
modifications: D-Tyr1; Aib2; αMeF(2F)6; αMeL13; K17((2-[2-(2-Amino-ethoxy)-ethoxy]-acetyl)2-(γ-Glu)-CO-(CH2)18-CO2H); Aib20; C-terminal NH2
Ki [1]: 27.7 pM
Ki [2]: 2440 pM
Ki [3]: 17100 pM
